In the assay the target is opioid receptors of rat brain homogenate ([3H]-Naloxone binding sites). Kind of assay: [3H]-Naloxone (1.0 nM) displacement, rat brain homogenate, filtration.
As to Dynorphin A 1-13-NH2 (peptide), the % inhibition at 0.1 nM was found to be 2.76%, the % inhibition at 10 nM stood at 9.89% and the % inhibition at 1000 nM turned out to be 91.8%.
For Dynorphin A 2-13-NH2 (peptide), in that order: 1.66%, -0.19% and 44.1%.
For Dynorphin A 2-17-NH2 (peptide), in that order: -3.21%, 4.87% and 12.7%.
Consider “Human serum albumin (HSA) (from UniProt P02768 25-609)”, for which the % inhibition at 0.1 nM is -0.6%.

One may read the % inhibition as the drop in the measured response relative to a control, in per cent.
